T1: Human CD3eg linker (human)
T1 construct: Single-chain construct; also called recombinant human CD3
T1 chain: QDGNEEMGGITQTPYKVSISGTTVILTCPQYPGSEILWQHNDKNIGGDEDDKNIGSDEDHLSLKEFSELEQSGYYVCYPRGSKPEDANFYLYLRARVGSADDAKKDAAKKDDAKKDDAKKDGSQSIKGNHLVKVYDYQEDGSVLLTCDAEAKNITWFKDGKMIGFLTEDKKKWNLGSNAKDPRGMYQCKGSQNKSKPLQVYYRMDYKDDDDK

B1: H183/L072 VL T92F (antibody, name in Kabat numbering, V domains shown)
VH: QVQLVESGGGLVQPGRSLRLSCAASGFTFSNAWMHWVRQAPGKGLEWVAQIKDKGNAYAAYYAPSVKGRFTISRDDSKNSIYLQMNSLKTEDTAVYYCHYVHYASASTVLPAFGVDAWGQGTTVTVSS
VL: DIVMTQSPLSLPVTPGEPASISCQASQELVHMNRNTYLHWYQQKPGQAPRLLIYKVSNRFPGVPDRFSGSGSGTDFTLKISRVEAEDVGVYYCAQGFSVPFTFGQGTKLEIK
B2: H183/L072 VL T92K (antibody, name in Kabat numbering, V domains shown)
VH: B1 VH
VL: B1 VL with F97K
B3: H183/L072 VL T92L (antibody, name in Kabat numbering, V domains shown)
VH: B1 VH
VL: B1 VL with F97L
B4: H183/L072 VL V27cH (antibody, name in Kabat numbering, V domains shown)
VH: B1 VH
VL: B1 VL with V30H, F97T
B5: H183/L072 VL T97N (antibody, name in Kabat numbering, V domains shown)
VH: B1 VH
VL: B1 VL with F97T, T102N
B6: H183/L072 VL T97M (antibody, name in Kabat numbering, V domains shown)
VH: B1 VH
VL: B1 VL with F97T, T102M
B7: H183/L072 VL T92Q (antibody, name in Kabat numbering, V domains shown)
VH: B1 VH
VL: B1 VL with F97Q
B8: H183/L072 VL T97E (antibody, name in Kabat numbering, V domains shown)
VH: B1 VH
VL: B1 VL with F97T, T102E
B9: H183/L072 VL V27cD (antibody, name in Kabat numbering, V domains shown)
VH: B1 VH
VL: B1 VL with V30D, F97T
B10: H183/L072 VL T97L (antibody, name in Kabat numbering, V domains shown)
VH: B1 VH
VL: B1 VL with F97T, T102L
B11: H183/L072 VL T97D (antibody, name in Kabat numbering, V domains shown)
VH: B1 VH
VL: B1 VL with F97T, T102D
B12: H183/L072 VL T97S (antibody, name in Kabat numbering, V domains shown)
VH: B1 VH
VL: B1 VL with F97T, T102S
B13: H183/L072 VL T97I (antibody, name in Kabat numbering, V domains shown)
VH: B1 VH
VL: B1 VL with F97T, T102I
B14: H183/L072 VL T92H (antibody, name in Kabat numbering, V domains shown)
VH: B1 VH
VL: B1 VL with F97H
B15: H183/L072 VL T97H (antibody, name in Kabat numbering, V domains shown)
VH: B1 VH
VL: B1 VL with F97T, T102H
B16: H183/L072 VL T92R (antibody, name in Kabat numbering, V domains shown)
VH: B1 VH
VL: B1 VL with F97R
B17: H183/L072 VL V27cF (antibody, name in Kabat numbering, V domains shown)
VH: B1 VH
VL: B1 VL with V30F, F97T
B18: H183/L072 VL T97F (antibody, name in Kabat numbering, V domains shown)
VH: B1 VH
VL: B1 VL with F97T, T102F
B19: H183/L072 VL T97K (antibody, name in Kabat numbering, V domains shown)
VH: B1 VH
VL: B1 VL with F97T, T102K
B20: H183/L072 VL T97R (antibody, name in Kabat numbering, V domains shown)
VH: B1 VH
VL: B1 VL with F97T, T102R
B21: H183/L072 VL T97Q (antibody, name in Kabat numbering, V domains shown)
VH: B1 VH
VL: B1 VL with F97T, T102Q
B22: H183/L072 VL T97A (antibody, name in Kabat numbering, V domains shown)
VH: B1 VH
VL: B1 VL with F97T, T102A
B23: H183/L072 VL T92V (antibody, name in Kabat numbering, V domains shown)
VH: B1 VH
VL: B1 VL with F97V
B24: H183/L072 VL T92G (antibody, name in Kabat numbering, V domains shown)
VH: B1 VH
VL: B1 VL with F97G
B25: H183/L072 VL V27cA (antibody, name in Kabat numbering, V domains shown)
VH: B1 VH
VL: B1 VL with V30A, F97T
B26: H183/L072 VL T92S (antibody, name in Kabat numbering, V domains shown)
VH: B1 VH
VL: B1 VL with F97S
B27: H183/L072 VL T92M (antibody, name in Kabat numbering, V domains shown)
VH: B1 VH
VL: B1 VL with F97M
B28: H183/L072 VL T97V (antibody, name in Kabat numbering, V domains shown)
VH: B1 VH
VL: B1 VL with F97T, T102V
B29: H183/L072 VL T92N (antibody, name in Kabat numbering, V domains shown)
VH: B1 VH
VL: B1 VL with F97N
B30: H183/L072 VL T97G (antibody, name in Kabat numbering, V domains shown)
VH: B1 VH
VL: B1 VL with F97T, T102G
B31: H183/L072 VL V27cE (antibody, name in Kabat numbering, V domains shown)
VH: B1 VH
VL: B1 VL with V30E, F97T

Substitutions are numbered along the chain they refer to. Numbers in names are those of the source.

The target in the experiment is T1, Human CD3eg linker. Briefly: SPR; fold vs parent H183/L072. On the technique in general: Surface plasmon resonance follows binding to a sensor surface in real time, without labels.
As for B1, the “fold change of affinity” value came to 0.3 fold.
In the case of B2, the “fold change of affinity” value is 0.8 fold.
For B3, the “fold change of affinity” value is 0.3 fold.
On to B4, for which the “fold change of affinity” value was found to be 0.3 fold.
Turning to B5, the “fold change of affinity” value was 0.5 fold.
Take B6: the “fold change of affinity” value amounted to 0.7 fold.
As for B7, the “fold change of affinity” value was 0 fold.
B8: the “fold change of affinity” value is 0.6 fold.
For the molecule B9, the “fold change of affinity” value was 0.1 fold.
With B10 the figure was 0.4 fold; with B11, 0.6 fold.
To B12 belongs 1.1 fold; to B13, 0.5 fold; to B14, 0.2 fold.
To B15 belongs 0.5 fold; to B16, 0.5 fold.
As for B17, the “fold change of affinity” value came to 0.5 fold.
For the molecule B18, the “fold change of affinity” value was 0.3 fold.
In the case of B19, the “fold change of affinity” value worked out at 0.6 fold.
With B20 the figure was 0.4 fold; with B21, 0.5 fold.
With B22 the figure was 0.8 fold; with B23, 0.4 fold; with B24, 0.2 fold.
With B25 the figure was 0.4 fold; with B26, 0.5 fold.
In the case of B27, the “fold change of affinity” value was found to be 0.3 fold.
With B28 the figure was 0.6 fold.
With B29 the figure was 0.2 fold; with B30, 1 fold; with B31, 0.7 fold.

The record behind these values is patent US20210388087A1 (Chugai, published 2021).
